Values of other authors, collected in paper PMC4586255.
pKd: −log10 of the molar value. Where two headings read alike, the source gives them in different places.

Columns and labels:
PCNA (Homo sapiens) [1] = biological target: PCNA (Homo sapiens) (UniProt P12004)
PCNA (Homo sapiens) [2] = biological target: PCNA (Homo sapiens) (UniProt P12004); remark: listed apart in the source

Chain of PCNA (Homo sapiens) (P12004 whole entry): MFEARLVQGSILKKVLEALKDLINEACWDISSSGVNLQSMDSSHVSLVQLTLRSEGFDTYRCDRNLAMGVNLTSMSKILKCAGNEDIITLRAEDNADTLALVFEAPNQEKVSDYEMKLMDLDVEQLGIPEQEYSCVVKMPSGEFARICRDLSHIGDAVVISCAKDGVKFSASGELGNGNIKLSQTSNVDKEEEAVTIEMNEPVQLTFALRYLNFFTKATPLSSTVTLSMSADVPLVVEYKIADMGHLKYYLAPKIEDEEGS
Chain of FEN1 PIP-box peptide PIP-box peptide (P39748 331-350): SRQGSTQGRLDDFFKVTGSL
Chain of p21 PIP-box peptide PIP-box peptide (P38936 139-160): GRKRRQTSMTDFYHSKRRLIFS

Substance	pKd (PCNA (Homo sapiens) [1])	pKd (PCNA (Homo sapiens) [2])
FEN1 PIP-box peptide PIP-box peptide (from UniProt P39748)	4.23	–
p21 PIP-box peptide PIP-box peptide (from UniProt P38936)	–	7.09
